Patent publication US20260184748A1 (University of Pennsylvania, published 2026)
Where no end group is shown, it is not given here.

What was measured:
Experiment in all cases: cell-based or functional assay
[1] = target: DRD5 (UniProt P21918 1-477)
[2] = target: HRH4 (UniProt Q9H3N8 1-390)
[3] = target: MCHR2 (UniProt Q969V1 1-340)
[4] = target: T1, CCR1 (UniProt P32246 1-355)
T1 sequence (looked up): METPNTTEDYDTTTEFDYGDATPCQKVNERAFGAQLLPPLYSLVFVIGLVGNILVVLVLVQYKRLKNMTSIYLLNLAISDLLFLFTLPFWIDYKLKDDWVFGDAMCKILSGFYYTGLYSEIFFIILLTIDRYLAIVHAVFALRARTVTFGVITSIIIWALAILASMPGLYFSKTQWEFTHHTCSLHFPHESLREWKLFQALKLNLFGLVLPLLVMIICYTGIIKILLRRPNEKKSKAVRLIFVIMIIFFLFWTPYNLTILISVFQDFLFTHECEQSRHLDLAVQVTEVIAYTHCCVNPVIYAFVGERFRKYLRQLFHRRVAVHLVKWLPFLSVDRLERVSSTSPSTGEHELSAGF

[5] = target: T2, HTR2C (UniProt P28335 33-458, limits assumed)
T2 sequence (looked up): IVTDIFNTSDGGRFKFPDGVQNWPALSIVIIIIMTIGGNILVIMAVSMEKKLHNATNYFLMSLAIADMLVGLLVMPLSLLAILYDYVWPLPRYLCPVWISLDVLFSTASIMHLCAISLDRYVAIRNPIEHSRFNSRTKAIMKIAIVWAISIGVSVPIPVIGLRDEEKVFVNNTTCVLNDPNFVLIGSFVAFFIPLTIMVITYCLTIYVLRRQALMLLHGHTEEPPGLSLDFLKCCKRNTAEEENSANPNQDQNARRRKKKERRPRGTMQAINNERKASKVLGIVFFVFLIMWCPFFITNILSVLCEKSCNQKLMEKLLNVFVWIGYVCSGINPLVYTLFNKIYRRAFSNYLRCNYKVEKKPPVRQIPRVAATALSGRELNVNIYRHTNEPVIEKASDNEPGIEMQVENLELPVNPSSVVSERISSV

[6] = target: T3, CCR7 (UniProt P32248 25-378)
T3 sequence (looked up): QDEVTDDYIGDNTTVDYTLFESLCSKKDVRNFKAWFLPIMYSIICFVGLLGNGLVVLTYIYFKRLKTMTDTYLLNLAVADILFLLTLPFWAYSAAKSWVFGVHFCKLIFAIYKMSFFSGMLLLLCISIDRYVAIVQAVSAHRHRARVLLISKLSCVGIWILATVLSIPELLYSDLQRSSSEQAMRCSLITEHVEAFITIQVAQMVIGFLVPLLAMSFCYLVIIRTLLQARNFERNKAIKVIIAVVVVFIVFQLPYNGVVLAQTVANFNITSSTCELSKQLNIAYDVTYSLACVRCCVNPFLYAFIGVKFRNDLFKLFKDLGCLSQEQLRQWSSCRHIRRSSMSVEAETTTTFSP

[7] = target: P2RY12 (UniProt Q9H244 1-342)
[8] = target: T4, TACR3 (UniProt P29371 1-465)
T4 sequence (looked up): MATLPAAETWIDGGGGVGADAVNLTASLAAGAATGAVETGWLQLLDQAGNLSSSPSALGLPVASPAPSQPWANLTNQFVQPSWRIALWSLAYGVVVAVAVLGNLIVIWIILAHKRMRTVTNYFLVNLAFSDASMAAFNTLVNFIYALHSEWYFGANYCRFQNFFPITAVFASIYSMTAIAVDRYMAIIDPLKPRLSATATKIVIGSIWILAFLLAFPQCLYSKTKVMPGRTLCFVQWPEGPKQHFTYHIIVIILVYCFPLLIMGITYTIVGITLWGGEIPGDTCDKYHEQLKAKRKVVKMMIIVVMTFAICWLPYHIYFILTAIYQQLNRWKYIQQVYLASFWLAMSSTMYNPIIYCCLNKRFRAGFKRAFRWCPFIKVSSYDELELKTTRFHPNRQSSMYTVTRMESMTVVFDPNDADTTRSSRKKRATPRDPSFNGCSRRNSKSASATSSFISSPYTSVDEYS

[9] = target: OPRD1 (UniProt P41143 1-372)
[10] = target: EDG4 (UniProt Q9HBW0 1-348)
[11] = target: T5, C5aR1 (UniProt P21730 1-350)
T5 sequence (looked up): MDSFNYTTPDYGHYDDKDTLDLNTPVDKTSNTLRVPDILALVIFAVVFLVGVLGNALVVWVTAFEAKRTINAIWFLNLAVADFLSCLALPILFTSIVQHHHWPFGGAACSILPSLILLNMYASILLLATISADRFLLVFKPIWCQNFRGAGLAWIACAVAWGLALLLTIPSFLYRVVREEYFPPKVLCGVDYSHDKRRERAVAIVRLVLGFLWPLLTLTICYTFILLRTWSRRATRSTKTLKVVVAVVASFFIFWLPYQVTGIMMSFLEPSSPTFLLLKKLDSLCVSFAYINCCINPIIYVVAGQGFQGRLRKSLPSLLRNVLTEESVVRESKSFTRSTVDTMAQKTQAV

[12] = target: T6, P2RY11 (UniProt Q96G91 1-374)
T6 sequence (looked up): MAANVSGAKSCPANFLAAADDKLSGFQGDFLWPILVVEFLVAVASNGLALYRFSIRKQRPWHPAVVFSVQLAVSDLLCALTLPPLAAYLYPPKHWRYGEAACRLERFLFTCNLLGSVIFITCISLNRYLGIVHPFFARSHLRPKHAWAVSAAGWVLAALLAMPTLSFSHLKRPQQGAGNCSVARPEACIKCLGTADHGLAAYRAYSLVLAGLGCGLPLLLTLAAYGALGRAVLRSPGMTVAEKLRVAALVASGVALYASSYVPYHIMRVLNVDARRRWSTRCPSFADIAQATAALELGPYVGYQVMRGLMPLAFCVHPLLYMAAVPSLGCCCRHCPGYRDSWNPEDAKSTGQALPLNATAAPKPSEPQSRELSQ

OPRD1, sequence (P41143 whole entry): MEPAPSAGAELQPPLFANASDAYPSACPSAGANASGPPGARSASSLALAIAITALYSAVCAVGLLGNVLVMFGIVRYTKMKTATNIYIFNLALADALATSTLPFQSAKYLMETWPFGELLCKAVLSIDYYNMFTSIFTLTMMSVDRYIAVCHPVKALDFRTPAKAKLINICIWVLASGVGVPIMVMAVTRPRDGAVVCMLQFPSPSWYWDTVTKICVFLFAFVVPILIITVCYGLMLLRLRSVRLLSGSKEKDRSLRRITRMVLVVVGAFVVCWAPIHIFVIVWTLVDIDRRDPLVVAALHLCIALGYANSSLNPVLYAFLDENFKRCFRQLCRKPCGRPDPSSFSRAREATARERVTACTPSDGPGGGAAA
P2RY12, sequence (Q9H244 whole entry, one chain of several): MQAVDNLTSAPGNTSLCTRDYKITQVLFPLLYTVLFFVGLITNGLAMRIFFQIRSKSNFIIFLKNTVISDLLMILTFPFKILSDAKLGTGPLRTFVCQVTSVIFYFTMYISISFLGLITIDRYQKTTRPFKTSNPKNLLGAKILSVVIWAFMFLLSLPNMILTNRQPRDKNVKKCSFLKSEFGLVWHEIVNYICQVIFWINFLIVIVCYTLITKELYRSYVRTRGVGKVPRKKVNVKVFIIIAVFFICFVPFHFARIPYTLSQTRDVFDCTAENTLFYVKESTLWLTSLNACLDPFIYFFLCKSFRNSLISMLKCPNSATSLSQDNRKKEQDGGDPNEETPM
HRH4, sequence (Q9H3N8 whole entry): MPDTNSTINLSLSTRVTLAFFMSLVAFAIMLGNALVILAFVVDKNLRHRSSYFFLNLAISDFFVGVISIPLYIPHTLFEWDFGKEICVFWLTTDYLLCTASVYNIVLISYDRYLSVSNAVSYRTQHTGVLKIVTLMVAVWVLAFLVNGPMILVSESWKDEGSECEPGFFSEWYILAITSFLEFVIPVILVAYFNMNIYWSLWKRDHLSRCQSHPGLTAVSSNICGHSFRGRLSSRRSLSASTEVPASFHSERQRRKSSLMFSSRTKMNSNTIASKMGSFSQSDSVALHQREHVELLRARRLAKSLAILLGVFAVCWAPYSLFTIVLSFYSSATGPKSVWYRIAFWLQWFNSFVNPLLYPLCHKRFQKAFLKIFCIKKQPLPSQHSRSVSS
DRD5, sequence (P21918 whole entry): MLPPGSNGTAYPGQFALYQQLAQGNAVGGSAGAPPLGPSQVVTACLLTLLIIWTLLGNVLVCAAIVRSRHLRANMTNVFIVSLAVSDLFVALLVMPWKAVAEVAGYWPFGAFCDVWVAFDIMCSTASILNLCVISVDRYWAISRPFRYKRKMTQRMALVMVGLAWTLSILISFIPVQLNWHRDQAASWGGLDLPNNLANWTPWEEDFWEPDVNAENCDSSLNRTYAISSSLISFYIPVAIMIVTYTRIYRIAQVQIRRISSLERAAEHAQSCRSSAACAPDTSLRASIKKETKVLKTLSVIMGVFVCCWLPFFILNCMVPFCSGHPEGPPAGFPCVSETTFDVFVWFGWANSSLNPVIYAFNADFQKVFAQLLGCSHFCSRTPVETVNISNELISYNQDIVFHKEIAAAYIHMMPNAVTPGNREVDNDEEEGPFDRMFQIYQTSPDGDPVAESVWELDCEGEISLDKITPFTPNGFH
EDG4, sequence (Q9HBW0 whole entry): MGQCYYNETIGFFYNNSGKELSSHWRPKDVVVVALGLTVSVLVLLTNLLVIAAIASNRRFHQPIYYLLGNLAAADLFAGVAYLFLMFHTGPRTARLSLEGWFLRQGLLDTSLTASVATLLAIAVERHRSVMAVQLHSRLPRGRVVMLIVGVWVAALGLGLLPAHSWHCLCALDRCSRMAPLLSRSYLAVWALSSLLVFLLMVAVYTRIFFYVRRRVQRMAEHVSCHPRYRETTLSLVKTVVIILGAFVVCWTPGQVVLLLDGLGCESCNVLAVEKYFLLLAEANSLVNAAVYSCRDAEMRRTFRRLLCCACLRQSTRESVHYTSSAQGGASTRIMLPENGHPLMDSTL
MCHR2, sequence (Q969V1 whole entry): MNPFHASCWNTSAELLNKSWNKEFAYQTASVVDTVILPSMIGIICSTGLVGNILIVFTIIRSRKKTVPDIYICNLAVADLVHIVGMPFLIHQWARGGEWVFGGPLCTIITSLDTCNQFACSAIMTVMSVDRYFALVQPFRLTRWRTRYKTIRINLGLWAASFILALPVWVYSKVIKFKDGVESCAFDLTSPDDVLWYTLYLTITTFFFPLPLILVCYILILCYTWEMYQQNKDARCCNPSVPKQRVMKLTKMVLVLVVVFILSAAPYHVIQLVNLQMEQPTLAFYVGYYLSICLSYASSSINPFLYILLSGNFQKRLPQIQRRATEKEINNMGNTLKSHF

B1: octadecaneuropeptide (ODN) (peptide)
peptide: QATVGDVNTDRPGLLDLK
modifications: also: synthesised on Rink amide resin, C-terminal amide not given here outright
% Activity, arrestin, antagonist mode, 2.5 uM [1]: 4.2% | % Activity, arrestin, antagonist mode, 2.5 uM [2]: 5.2% | % Activity, arrestin, antagonist mode, 2.5 uM [3]: -10.5% | % Activity, arrestin, antagonist mode, 2.5 uM [4]: -5.4% | % Activity, arrestin, antagonist mode, 2.5 uM [5]: 2.2% | % Activity, arrestin, antagonist mode, 2.5 uM [6]: -19.2% | % Activity, arrestin, antagonist mode, 2.5 uM [7]: -11% | % Activity, arrestin, antagonist mode, 2.5 uM [8]: -5.8% | % Activity, arrestin, antagonist mode, 2.5 uM [9]: 10% | % Activity, arrestin, antagonist mode, 2.5 uM [10]: 4.6% | % Activity, arrestin, antagonist mode, 2.5 uM [11]: -14.2% | % Activity, arrestin, antagonist mode, 2.5 uM [12]: -5.6%
